Here are results for one molecule from patent EP4640708A1 (Chimagen Biosciences, Ltd, dated 2025).

Experiment [1] addresses T1, human GPRC5D (hGPRC5D) on cells (human, UniProt Q9NZD1 1-345).
T1 construct: whole, on cells; also called HEK293-hGPRC5D; CHOS-hGPRC5D
In words: flow cytometry, NCI-H929 cells naturally expressing GPRC5D. (In general: Flow cytometry measures light scatter and fluorescence of single cells or particles in a stream.)

Experiment [2] has as its target T1, human GPRC5D (hGPRC5D) on cells. In words: flow cytometry, RPMI-8226 cells naturally expressing GPRC5D.
The target is the same in experiment [3]. Nature of the experiment: flow cytometry, MM.1R cells naturally expressing GPRC5D.

T1 sequence (Q9NZD1 whole entry): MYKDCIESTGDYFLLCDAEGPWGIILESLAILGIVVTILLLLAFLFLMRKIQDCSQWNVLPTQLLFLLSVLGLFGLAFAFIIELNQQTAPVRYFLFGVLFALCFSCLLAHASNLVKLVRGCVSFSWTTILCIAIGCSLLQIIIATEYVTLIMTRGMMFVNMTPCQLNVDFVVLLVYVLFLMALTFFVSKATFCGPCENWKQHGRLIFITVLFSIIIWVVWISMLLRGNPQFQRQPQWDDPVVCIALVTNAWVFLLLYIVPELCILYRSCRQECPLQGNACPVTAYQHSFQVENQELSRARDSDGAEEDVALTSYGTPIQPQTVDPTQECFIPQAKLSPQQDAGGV

B1: GC5B596 (antibody, V domains shown)
VH: QVQLVQSGAEVKKPGASVKVSCKASGYSFTGYTMNWVRQAPGQGLEWMGLINPYNSDTNYAQKLQGRVTMTTDTSTSTAYMELRSLRSDDTAVYYCARVALRVALDYWGQGTLVTVSS
VL: DIQMTQSPSSLSASVGDRVTITCKASQNVATHVGWYQQKPGKAPKRLIYSASYRYSGVPSRFSGSGSGTEFTLTISNLQPEDFATYYCQQYNRYPYTFGQGTKLEIKR
For orientation: EC50 means the concentration that produces a half-maximal response. Low readings indicate higher potency in that assay, high ones lower potency in that assay. For the molecule B1, the values for the EC50 in experiment [1], in experiment [2] and in experiment [3] were 9.52 µg/mL, 14.3 µg/mL and 7.2 µg/mL, respectively.
